# In the Human Domainome abundance scans (Beltran et al. 2025):
# ± gives the uncertainty stated by the source.
# B1: Nanos homolog 2, residues 63 to 115; numbered along this chain, P60321 (parent)
# chain: CNFCKHNGESRHVYSSHQLKTPDGVVVCPILRHYVCPVCGATGDQAHTLKYCP
# Variants of: B1
# Assay: abundance fitness (aPCA) (normalised: wild type 0, dead -1); higher = more abundant; growth selection in yeast, the domain comes from the species named
# Details: Homo sapiens
row,Variant,abundance fitness
1,L31A,-0.117 ± 0.069
2,L31C,-0.416 ± 0.14
3,L31D,-0.622 ± 0.23
4,L31E,-0.339 ± 0.078
5,L31G,-0.443 ± 0.081
6,L31H,-0.271 ± 0.15
7,L31I,-0.16 ± 0.17
8,L31K,-0.271 ± 0.11
9,L31M,-0.153 ± 0.11
10,L31N,-0.547 ± 0.18
11,L31P,-0.444 ± 0.15
12,L31Q,-0.349 ± 0.097
13,L31R,-0.415 ± 0.074
14,L31S,-0.433 ± 0.09
15,L31T,-0.207 ± 0.13
16,L31V,-0.284 ± 0.066
17,L31W,-0.566 ± 0.15
18,L31Y,-0.66 ± 0.24
19,R32A,-0.241 ± 0.083
20,R32C,-0.662 ± 0.14
21,R32D,-0.376 ± 0.14
22,R32E,-0.49 ± 0.11
23,R32F,-0.514 ± 0.17
24,R32G,-0.352 ± 0.069

row,Variant,abundance fitness
1,R32H,-0.368 ± 0.16
2,R32I,-0.434 ± 0.064
3,R32K,-0.204 ± 0.14
4,R32L,-0.427 ± 0.09
5,R32M,-0.18 ± 0.11
6,R32N,-0.522 ± 0.19
7,R32P,-0.715 ± 0.14
8,R32Q,-0.446 ± 0.13
9,R32S,-0.225 ± 0.09
10,R32T,-0.204 ± 0.065
11,R32V,-0.473 ± 0.06
12,R32W,-0.419 ± 0.1
13,H33A,0.046 ± 0.075
14,H33C,-0.013 ± 0.11
15,H33D,0.127 ± 0.1
16,H33E,-0.082 ± 0.12
17,H33F,-0.534 ± 0.16
18,H33I,-0.435 ± 0.19
19,H33K,-0.013 ± 0.11
20,H33M,-0.028 ± 0.09
21,H33N,0.218 ± 0.093
22,H33P,-0.319 ± 0.084
23,H33R,0.036 ± 0.05
24,H33T,0.068 ± 0.1

row,Variant,abundance fitness
1,H33V,0.033 ± 0.069
2,H33W,-0.086 ± 0.09
3,H33Y,-0.335 ± 0.11
4,Y34A,-0.071 ± 0.07
5,Y34C,-0.066 ± 0.06
6,Y34D,-0.32 ± 0.093
7,Y34F,-0.011 ± 0.091
8,Y34G,-0.229 ± 0.051
9,Y34H,0.073 ± 0.12
10,Y34I,-0.107 ± 0.15
11,Y34K,-0.03 ± 0.14
12,Y34L,0.042 ± 0.068
13,Y34M,-0.092 ± 0.11
14,Y34N,-0.134 ± 0.091
15,Y34P,-0.6 ± 0.14
16,Y34Q,0.013 ± 0.099
17,Y34R,0.046 ± 0.068
18,Y34S,-0.097 ± 0.08
19,Y34T,0.036 ± 0.1
20,Y34V,-0.033 ± 0.073
21,Y34W,-0.066 ± 0.12
22,V35A,-0.209 ± 0.085
23,V35C,-0.253 ± 0.089
24,V35D,-0.398 ± 0.1

row,Variant,abundance fitness
1,V35E,-0.076 ± 0.078
2,V35F,-0.676 ± 0.2
3,V35G,-0.306 ± 0.071
4,V35H,0.293 ± 0.2
5,V35K,-0.076 ± 0.1
6,V35L,-0.234 ± 0.097
7,V35M,-0.51 ± 0.2
8,V35N,-0.254 ± 0.16
9,V35P,-0.341 ± 0.094
10,V35R,-0.1 ± 0.081
11,V35W,-0.445 ± 0.12
12,V35Y,-0.086 ± 0.16
13,C36A,-0.416 ± 0.1
14,C36D,-0.444 ± 0.11
15,C36E,-0.627 ± 0.1
16,C36F,-0.888 ± 0.13
17,C36G,-0.826 ± 0.086
18,C36H,-0.623 ± 0.31
19,C36I,-0.976 ± 0.36
20,C36L,-1 ± 0.11
21,C36M,-0.75 ± 0.094
22,C36N,-0.675 ± 0.11
23,C36P,-0.74 ± 0.24
24,C36Q,-0.471 ± 0.22

row,Variant,abundance fitness
1,C36R,-0.658 ± 0.083
2,C36S,-0.699 ± 0.094
3,C36T,-0.804 ± 0.29
4,C36V,-0.93 ± 0.098
5,C36W,-1.16 ± 0.43
6,C36Y,-0.726 ± 0.23
7,P37A,-0.231 ± 0.12
8,P37C,-0.34 ± 0.12
9,P37D,0.07 ± 0.15
10,P37E,0.149 ± 0.11
11,P37F,-0.306 ± 0.12
12,P37G,-0.046 ± 0.059
13,P37H,-0.034 ± 0.11
14,P37I,-0.196 ± 0.13
15,P37K,0.139 ± 0.081
16,P37L,-0.214 ± 0.098
17,P37M,-0.101 ± 0.12
18,P37N,0.078 ± 0.087
19,P37Q,0.324 ± 0.2
20,P37R,0.088 ± 0.085
21,P37S,0.156 ± 0.1
22,P37T,-0.09 ± 0.11
23,P37V,-0.072 ± 0.066
24,P37W,-0.642 ± 0.15

row,Variant,abundance fitness
1,P37Y,-0.305 ± 0.41
2,V38A,0.001 ± 0.1
3,V38C,-0.099 ± 0.18
4,V38D,-0.184 ± 0.17
5,V38E,0.287 ± 0.1
6,V38F,0.084 ± 0.083
7,V38G,0.082 ± 0.066
8,V38H,-0.222 ± 0.16
9,V38I,-0.16 ± 0.13
10,V38K,0.314 ± 0.089
11,V38M,-0.003 ± 0.061
12,V38N,-0.012 ± 0.13
13,V38Q,0.091 ± 0.1
14,V38R,0.172 ± 0.06
15,V38S,0.074 ± 0.084
16,V38T,0.016 ± 0.11
17,V38W,-0.222 ± 0.11
18,C39A,-0.986 ± 0.46
19,C39D,-0.837 ± 0.32
20,C39E,-0.484 ± 0.12
21,C39F,-0.497 ± 0.36
22,C39G,-0.731 ± 0.13
23,C39H,-0.597 ± 0.22
24,C39I,-0.739 ± 0.39

row,Variant,abundance fitness
1,C39K,-0.608 ± 0.11
2,C39L,-0.607 ± 0.094
3,C39M,-0.717 ± 0.2
4,C39P,-0.85 ± 0.24
5,C39Q,-0.428 ± 0.18
6,C39R,-0.696 ± 0.11
7,C39T,-0.58 ± 0.08
8,C39V,-0.702 ± 0.21
9,C39W,-0.708 ± 0.11
10,C39Y,-0.781 ± 0.073
11,G40A,-0.08 ± 0.12
12,G40C,-0.023 ± 0.073
13,G40D,0.343 ± 0.16
14,G40E,0.13 ± 0.15
15,G40F,-0.012 ± 0.23
16,G40H,0.051 ± 0.16
17,G40I,-0.394 ± 0.12
18,G40K,0.183 ± 0.099
19,G40M,-0.107 ± 0.098
20,G40N,-0.134 ± 0.21
21,G40P,-0.595 ± 0.079
22,G40Q,-0.172 ± 0.23
23,G40R,0.021 ± 0.066
